Experimental data published in publication doi:10.1101/820647.

Experiments:
Assay in all cases: ITC
[1] = target: CDY1 chromodomain (aa 2-63) (human) (UniProt Q9Y6F8)
[2] = target: CDYL2 chromodomain (aa 2-62 or 2-64) (human) (UniProt Q8N8U2)
[3] = target: CDYL1b chromodomain (aa 1-66) (human) (UniProt Q9Y232)

UniProt Q9Y6F8, sequence (Q9Y6F8 2-63): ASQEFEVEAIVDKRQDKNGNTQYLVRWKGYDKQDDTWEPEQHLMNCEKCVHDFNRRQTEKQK
UniProt Q8N8U2, sequence (Q8N8U2 2-64): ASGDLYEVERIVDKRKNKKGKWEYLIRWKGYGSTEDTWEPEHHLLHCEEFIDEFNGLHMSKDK

| Kd [1] [µM] | fold more potent than to CBX7 [2] [fold] | fold more potent than to CBX7 [3] [fold] | Substance |
| --- | --- | --- | --- |
| 0.5 | – | – | H3K9me3 peptide |
| 93 | – | – | H3K27me3 peptide (canonical histone H3) |
| 32 | – | – | H3tK27me3 peptide (testis-specific histone H3t) |
| – | 10 | 10 | UNC4850 (peptide) |
